Source: patent publication US20120316071A1 (published 2012)
Where a chain is given by its changes, count along the chain named. In names and notes the source's numbering stands.

Legend:
[1] = target: T1, Recombinant Human DLL4 (R&D Systems Cat#1506-D4/CF) (human, UniProt Q9NR61 27-529); test: surface plasmon resonance, Fab against recombinant human DLL4; standard deviation in parentheses
T1 construct: Bought recombinant protein; also called rHuman DLL4; delta-like protein 4

Recombinant Human DLL4 [2] = target: T2, Recombinant Human DLL4 (human, UniProt Q9NR61 27-524); test: ECL (MSD) 96-well plate assay, DLL4 coated at 15 ug/mL, Fab 0.02 uM; signal over blank
T2 construct: Bought recombinant human DLL4 (R&D Systems Cat#1506-D4/CF), coated on the plate; also called delta-like protein 4; rHuman DLL4

Recombinant Human DLL4 [3] = target: T2, Recombinant Human DLL4; test: ECL (MSD) 96-well plate assay, DLL4 coated at 30 ug/mL, Fab 0.1 uM; signal over blank
[4] = target: T3, Recombinant Human DLL4 (R&D Systems Cat#1506-D4/CF) (human, UniProt Q9NR61 27-524); test: ECL multispot (MSD) binding assay, antigen spotted on plate, Fab 0.04 uM;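 also: purified Fab incubated 1 h at 20 °C on antigen spots, detected via TAG-labelled antibody, ECL read against each well's blank, with signal-to-blank of at least 4 scored as binder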
T3 construct: Bought recombinant protein; also called delta-like protein 4; rHuman DLL4

[5] = target: T4, rHuman P-Cadherin/Fc Chimera, CF (R&D Systems Cat#861-PC) (human, UniProt P22223 108-654); test: as above
T4 construct: Bought recombinant protein; Fc part of the bought chimera not given

[6] = target: T5, rHuman IGF-1 sR, (IGF-1 sR), CF (R&D Systems Cat#391-GR) (human, UniProt P08069 31-932); test: ECL (MSD) multispot binding assay, antigen spotted on plate, 20 nM Fab;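 also: purified Fab incubated 1 h at 20 °C on antigen-spotted plate, bound Fab revealed with TAG detection antibody, ECL read, antigen signal divided by same-well blank, ratio ≥4 counted as hit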
T5 construct: Bought recombinant soluble receptor; also called insulin-like growth factor-1 soluble receptor

[7] = target: T6, rHuman P-Cadherin/Fc Chimera, CF (R&D Systems Cat#861-PC) (human, UniProt P22223 108-654); test: as above
T6 construct: Bought recombinant protein; Fc part of the bought chimera not given

[8] = target: T7, rHuman Notch-1/Fc Chimera, CF (R&D Systems Cat#3647-TK) (human, UniProt P46531 19-526); test: as above
T7 construct: Bought recombinant protein; Fc part of the bought chimera not given

[9] = target: T8, rHuman CD44/Fc Chimera, CF (R&D Systems Cat#3660-CD) (human, UniProt P16070 21-220); test: as above
T8 construct: Bought recombinant protein; Fc part of the bought chimera not given

[10] = target: T9, Recombinant Human DLL4 (R&D Systems Cat#1506-D4/CF) (human, UniProt Q9NR61 27-524); test: as above
T9 construct: Bought recombinant protein; also called delta-like protein 4; rHuman DLL4

[11] = target: T10, rHuman IGF-1 sR, CF (R&D Systems Cat#391-GR) (human, UniProt P08069 31-932); test: as above
T10 construct: Bought soluble receptor; also called insulin-like growth factor-1 soluble receptor

[12] = target: T11, rHuman ErbB2/Fc Chimera, CF (R&D Systems Cat#1129-ER) (human, UniProt P04626 23-652); test: as above
T11 construct: Bought reagent; also called human epidermal growth factor 2 receptor; Fc part of the bought chimera not given

[13] = target: T12, rHuman CD44/Fc Chimera, CF (R&D Systems Cat#3660-CD) (human, UniProt P16070 21-220); test: as above
T12 construct: Bought reagent; Fc part of the bought chimera not given

[14] = target: T13, Recombinant Human DLL4 (R&D Systems Cat#1506-D4/CF) (human, UniProt Q9NR61 27-524); test: as above; remark: listed apart in the source
T13 construct: Bought recombinant protein; also called delta-like protein 4; rHuman DLL4

[15] = target: T14, rHuman Erythropoietin R/Fc Chimera, CF (R&D Systems Cat#963-ER) (human, UniProt P19235 25-250); test: as above
T14 construct: Bought reagent; also called EPO R; EPO R/Fc; Fc part of the bought chimera not given
T14 sequence (looked up): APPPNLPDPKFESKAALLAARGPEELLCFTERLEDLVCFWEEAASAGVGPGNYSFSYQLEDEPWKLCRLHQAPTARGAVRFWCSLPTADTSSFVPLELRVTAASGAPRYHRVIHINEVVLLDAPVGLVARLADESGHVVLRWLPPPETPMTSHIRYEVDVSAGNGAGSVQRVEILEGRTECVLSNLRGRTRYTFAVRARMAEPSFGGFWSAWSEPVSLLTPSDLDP

[16] = target: T15, rHuman P-Cadherin/Fc Chimera, CF (R&D Systems Cat#861-PC) (human, UniProt P22223 108-654); test: as above
T15 construct: Bought reagent; Fc part of the bought chimera not given

B1: Fab VH5-51_IGHD5-18*01>3_IGHJ4*01 & V3-4_IGLJ1*01 (Fab, V domains shown)
VH: EVQLVQSGAEVKKPGESLKISCKGSGYSFTSYWIGWVRQMPGKGLEWMGIIYPGDSDTRYSPSFQGQVTISADKSISTAYLQWSSLKASDTAMYYCARRGYSYGYDYFDYWGQGTLVTVSS
VL: QTVVTQEPSFSVSPGGTVTLTCGLSSGSVSTSYYPSWYQQTPGQAPRTLIYSTNTRSSGVPDRFSGSILGNKAALTITGAQADDESDYYCVLYMGSGISYVFGTGTKVTVL
notes: Germline Fab made in E. coli: VH in Plasmid A (CH1, His6 and Flag tags), lambda VL in Plasmid E (lambda CL)
Kd [1]: 4.8 µM

B2: Fab VH6-1_IGHD3-3*01_IGHJ4*01 & V4-3_IGLJ4*01 (Fab, V domains shown)
VH: QVQLQQSGPGLVKPSQTLSLTCAISGDSVSSNSAAWNWIRQSPSRGLEWLGRTYYRSKWYNDYAVSVKSRITINPDTSKNQFSLQLNSVTPEDTAVYYCAREYYDFWSGYYTDYFDYWGQGTLVTVSS
VL: QPVLTQPTSLSASPGASARLTCTLRSGINLGSYRIFWYQQKPESPPRYLLSYYSDSSKHQGSGVPSRFSGSKDASSNAGILVISGLQSEDEADYYCMIWHSSASFVFGGGTQLIIL
notes: as for B1
Kd [1]: 38 µM

B3: Fab VH1-46_IGHD3-10*01_IGHJ4*01 & L12_IGKJ1*01 (Fab, V domains shown)
VH: QVQLVQSGAEVKKPGASVKVSCKASGYTFTSYYMHWVRQAPGQGLEWMGIINPSGGSTSYAQKFQGRVTMTRDTSTSTVYMELSSLRSEDTAVYYCAREYYYGSGSYYNDYFDYWGQGTLVTVSS
VL: not shown
notes: Germline Fab made in E. coli: VH in Plasmid A (CH1, His6 and Flag tags), kappa VL in Plasmid C (kappa CL)
Kd [1]: 0.5 µM | koff [1]: 0.29 s⁻¹ | kon [1]: 500000 M⁻¹ s⁻¹

B4: Fab VH5-51_IGHD5-18*01>3_IGHJ4*01 G104D & V3-4_IGLJ1*01 (Fab, V domains shown)
VH: B1 VH with G104D
VL: B1 VL
notes: Fab; VH-CH1 (His6/Flag, Plasmid A) and VL-lambda CL (Plasmid E)
Signal/Noise (Recombinant Human DLL4 [2]): 23.2 | Signal/Noise (Recombinant Human DLL4 [3]): 42.5

B5: Fab VH5-51_IGHD5-18*01>3_IGHJ4*01 G104K & V3-4_IGLJ1*01 (Fab, V domains shown)
VH: B1 VH with G104K
VL: B1 VL
notes: as for B4
Signal/Noise (Recombinant Human DLL4 [2]): 9.1 | Signal/Noise (Recombinant Human DLL4 [3]): 17.6

B6: Fab VH5-51_IGHD5-18*01>3_IGHJ4*01 G104M & V3-4_IGLJ1*01 (Fab, V domains shown)
VH: B1 VH with G104M
VL: B1 VL
notes: as for B4
Signal/Noise (Recombinant Human DLL4 [2]): 12.3 | Signal/Noise (Recombinant Human DLL4 [3]): 29.1

B7: Fab VH5-51_IGHD5-18*01>3_IGHJ4*01 G104S & V3-4_IGLJ1*01 (Fab, V domains shown)
VH: B1 VH with G104S
VL: B1 VL
notes: as for B4
Signal/Noise (Recombinant Human DLL4 [2]): 25.6 | Signal/Noise (Recombinant Human DLL4 [3]): 47.8

B8: Fab VH5-51_IGHD5-18*01>3_IGHJ4*01 G100K/G104T (H:KT) & V3-4_IGLJ1*01 G97A (Fab, V domains shown)
VH: B1 VH with G100K, G104T
VL: B1 VL with G97A
notes: Fab; Expressed from Plasmid A (CH1, His6 and Flag tags) and Plasmid E (lambda CL); also called KT & G97A
ECL signal [4]: 14900 | ECL signal [5]: 474

B9: Fab VH3-23_IGHD2-21*01>3_IGHJ6*01 H100E/S108P/Y113G/Y111H & V2-13_IGLJ2*01 (Fab, V domains shown)
VH: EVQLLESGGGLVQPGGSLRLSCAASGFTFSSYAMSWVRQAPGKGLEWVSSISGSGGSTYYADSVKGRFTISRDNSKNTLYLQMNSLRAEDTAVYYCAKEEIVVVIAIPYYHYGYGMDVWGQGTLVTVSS
VL: SSELTQDPAVSVALGQTVRITCQGDSLRSYYASWYQQKPGQAPVLVIYGKNNRPSGIPDRFSGSSSGNTASLTITGAQAEDEADYYCNSRDSSGNHLVVFGGGTKLTVL
notes: Fab made in E. coli: VH joined to CH1 (with His and Flag tags, plasmid A) and VL to lambda CL (plasmid E); also called EPG Y111H
ECL signal/blank ratio [6]: 1.2 | ECL signal/blank ratio [7]: 7.7 | ECL signal/blank ratio [8]: 1.5 | ECL signal/blank ratio [9]: 1.3 | ECL signal/blank ratio [10]: 1.6

B10: Fab VH3-23_IGHD2-21*01>3_IGHJ6*01 H100E/S108P/Y113G Y114H & V2-13_IGLJ2*01 (Fab, V domains shown)
VH: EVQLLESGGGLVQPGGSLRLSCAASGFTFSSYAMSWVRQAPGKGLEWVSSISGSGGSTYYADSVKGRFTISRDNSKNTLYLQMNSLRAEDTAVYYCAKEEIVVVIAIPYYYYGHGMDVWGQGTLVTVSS
VL: B9 VL
notes: Tested as Fab made in E. coli (VH-CH1 with His and Flag tags; lambda CL); also called EPG Y114H
ECL multispot value [11]: 1.4 | ECL multispot value [12]: 12.5 | ECL multispot value [13]: 1.8 | ECL multispot value [14]: 2.3 | ECL multispot value [15]: 120 | ECL multispot value [16]: 27
